Experimental data published in US20240059760A1 (UNIVERSITY OF CHICAGO, published 2024).
Numbering of substitutions follows the chain as printed. Read-outs that look alike come from different tables or passages of the source.

B1: sRBD7 Fab (Fab, V domains shown)
VH: EVQLVESGGGLVQPGGSLRLSCAASGFNVYSSYIHWVRQAPGKGLEWVAYISPYYGSTYYADSVKGRFTISADTSKNTAYLQMNSLRAEDTAVYYCARYWSYGGMDYWGQGTLVTVSS
VL: DIQMTQSPSSLSASVGDRVTITCRASQSVSSAVAWYQQKPGKAPKLLIYSASSLYSGVPSRFSGSRSGTDFTLTISSLQPEDFATYYCQQYYYGALITFGQGTKVEIKR
B2: sRBD1.15 Fab (Fab, V domains shown)
VH: EVQLVESGGGLVQPGGSLRLSCAASGFNFHNSYIHWVRQAPGKGLEWVASISSYSGYTYYADSVKGRFTISADTSKNTAYLQMNSLRAEDTAVYYCARSYQGQEALDYWGQGTLVTVSS
VL: B1 VL with Y92L, G94F, A95S, I97V

Key:
[1] = molecular target: T1, Receptor Binding Domain (RBD) of SARS-CoV-2 S protein (SARS-CoV-2, UniProt P0DTC2 319-541)
[2] = molecular target: T1, Receptor Binding Domain (RBD) of …; remark: listed apart in the source

Binder | Kd [1] [nM] | koff [1] [s⁻¹] | kon [1] [M⁻¹ s⁻¹] | Kd [2] [nM] | koff [2] [s⁻¹] | kon [2] [M⁻¹ s⁻¹]
B1 | 2.55 | 0.00029 | 150000 |  |  | 
B2 |  |  |  | 0.1 | 0.00011 | 1e+06
